{"source": "patent US20160331662A1", "about": "(UAB RESEARCH FOUNDATION, published 2016)", "key": {"[1]": {"molecular_target": "the molecule itself", "test": "SPR, analyte over immobilized iSRCR123; quantity and unit not printed beside the number, told as 'nanomolar affinities'"}, "[2]": {"molecular_target": "T1, FL^AgI/II (S. mutans UA159 Antigen I/II, full length recombinant construct) (Streptococcus mutans UA159, UniProt P23504 39-1562)", "T1 construct": "also called CG14", "T1 sequence (P23504 39-1562)": "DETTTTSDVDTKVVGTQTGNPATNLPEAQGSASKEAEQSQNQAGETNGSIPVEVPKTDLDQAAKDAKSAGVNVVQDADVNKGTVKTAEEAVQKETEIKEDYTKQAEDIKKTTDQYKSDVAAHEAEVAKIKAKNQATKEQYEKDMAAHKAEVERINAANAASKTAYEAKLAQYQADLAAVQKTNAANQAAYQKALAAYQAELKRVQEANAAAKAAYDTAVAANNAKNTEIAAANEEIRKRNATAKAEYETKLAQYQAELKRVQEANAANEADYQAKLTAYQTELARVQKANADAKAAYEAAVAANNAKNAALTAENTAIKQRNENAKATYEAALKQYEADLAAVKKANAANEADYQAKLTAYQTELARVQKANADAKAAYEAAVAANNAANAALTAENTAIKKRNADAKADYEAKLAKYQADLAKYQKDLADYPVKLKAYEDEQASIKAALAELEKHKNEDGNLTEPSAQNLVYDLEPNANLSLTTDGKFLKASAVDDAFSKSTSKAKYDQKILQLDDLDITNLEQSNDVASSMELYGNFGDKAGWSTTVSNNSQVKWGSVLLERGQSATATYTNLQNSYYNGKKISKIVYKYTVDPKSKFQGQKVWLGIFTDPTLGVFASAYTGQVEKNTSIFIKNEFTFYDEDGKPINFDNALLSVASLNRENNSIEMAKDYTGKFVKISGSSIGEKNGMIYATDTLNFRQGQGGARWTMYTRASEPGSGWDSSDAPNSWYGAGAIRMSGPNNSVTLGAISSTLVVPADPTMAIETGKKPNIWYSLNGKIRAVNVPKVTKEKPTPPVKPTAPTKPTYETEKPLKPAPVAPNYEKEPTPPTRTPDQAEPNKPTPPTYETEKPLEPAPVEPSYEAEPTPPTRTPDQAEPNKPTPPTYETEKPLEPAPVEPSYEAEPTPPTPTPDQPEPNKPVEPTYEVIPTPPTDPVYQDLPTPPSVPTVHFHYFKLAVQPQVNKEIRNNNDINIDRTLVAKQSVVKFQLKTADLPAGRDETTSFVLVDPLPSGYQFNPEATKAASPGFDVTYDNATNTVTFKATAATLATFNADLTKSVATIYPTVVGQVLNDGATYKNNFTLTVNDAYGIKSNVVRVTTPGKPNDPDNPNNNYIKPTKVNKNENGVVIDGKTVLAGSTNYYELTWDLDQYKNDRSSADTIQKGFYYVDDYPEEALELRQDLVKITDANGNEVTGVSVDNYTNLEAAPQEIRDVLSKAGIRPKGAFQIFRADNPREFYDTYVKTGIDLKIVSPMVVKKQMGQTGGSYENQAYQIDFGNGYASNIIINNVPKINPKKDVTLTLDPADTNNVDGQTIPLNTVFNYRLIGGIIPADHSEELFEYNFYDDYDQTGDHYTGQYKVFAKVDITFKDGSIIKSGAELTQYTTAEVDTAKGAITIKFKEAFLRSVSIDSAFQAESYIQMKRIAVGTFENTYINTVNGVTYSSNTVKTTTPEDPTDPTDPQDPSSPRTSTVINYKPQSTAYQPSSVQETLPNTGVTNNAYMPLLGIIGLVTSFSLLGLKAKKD", "test": "SPR, analyte over ligand immobilized on CM5 chip, 1:1 Langmuir model"}, "[3]": {"molecular_target": "T2, C123^AgI/II (Streptococcus mutans UA159, UniProt P23504 1000-1486)", "T2 construct": "domain: C123", "T2 sequence": "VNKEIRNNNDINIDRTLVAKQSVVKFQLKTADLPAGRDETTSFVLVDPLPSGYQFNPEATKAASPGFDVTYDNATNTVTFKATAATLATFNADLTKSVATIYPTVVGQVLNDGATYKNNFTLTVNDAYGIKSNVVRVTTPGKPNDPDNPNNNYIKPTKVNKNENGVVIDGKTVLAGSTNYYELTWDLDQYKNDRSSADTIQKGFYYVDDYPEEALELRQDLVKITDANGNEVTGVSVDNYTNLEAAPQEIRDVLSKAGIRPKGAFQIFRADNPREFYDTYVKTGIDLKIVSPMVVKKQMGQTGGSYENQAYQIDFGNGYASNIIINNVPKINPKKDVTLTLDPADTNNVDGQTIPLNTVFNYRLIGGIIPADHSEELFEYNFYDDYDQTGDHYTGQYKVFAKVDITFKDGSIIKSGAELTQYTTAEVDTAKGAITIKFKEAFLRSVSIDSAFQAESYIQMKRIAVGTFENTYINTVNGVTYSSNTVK", "test": "SPR, analyte over ligand immobilized on CM5 chip, 1:1 Langmuir model"}, "[4]": {"molecular_target": "T3, A3VP1^AgI/II (Streptococcus mutans UA159, UniProt P23504 386-874)", "T3 construct": "domain: A3VP1; also called A3VP1 of AgI/II", "T3 sequence": "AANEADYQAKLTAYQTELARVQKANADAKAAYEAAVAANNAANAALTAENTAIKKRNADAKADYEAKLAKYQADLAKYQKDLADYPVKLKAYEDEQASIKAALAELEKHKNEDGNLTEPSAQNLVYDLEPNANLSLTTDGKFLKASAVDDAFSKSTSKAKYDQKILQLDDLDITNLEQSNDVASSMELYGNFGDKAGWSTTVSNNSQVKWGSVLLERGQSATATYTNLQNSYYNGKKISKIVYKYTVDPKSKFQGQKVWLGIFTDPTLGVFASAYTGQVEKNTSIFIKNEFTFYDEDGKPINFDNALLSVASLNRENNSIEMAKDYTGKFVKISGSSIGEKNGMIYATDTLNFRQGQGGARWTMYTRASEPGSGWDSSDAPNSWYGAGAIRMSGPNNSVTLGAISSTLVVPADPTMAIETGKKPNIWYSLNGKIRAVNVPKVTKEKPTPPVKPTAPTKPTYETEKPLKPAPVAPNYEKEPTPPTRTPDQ", "test": "SPR, analyte over ligand immobilized on CM5 chip, 1:1 Langmuir model"}, "[5]": {"molecular_target": "T4, FL^SspB (S. gordonii DL1 SspB, residues 39-1433) (Streptococcus gordonii DL1, UniProt P16952 39-1433)", "T4 construct": "range 39-1433", "T4 sequence": "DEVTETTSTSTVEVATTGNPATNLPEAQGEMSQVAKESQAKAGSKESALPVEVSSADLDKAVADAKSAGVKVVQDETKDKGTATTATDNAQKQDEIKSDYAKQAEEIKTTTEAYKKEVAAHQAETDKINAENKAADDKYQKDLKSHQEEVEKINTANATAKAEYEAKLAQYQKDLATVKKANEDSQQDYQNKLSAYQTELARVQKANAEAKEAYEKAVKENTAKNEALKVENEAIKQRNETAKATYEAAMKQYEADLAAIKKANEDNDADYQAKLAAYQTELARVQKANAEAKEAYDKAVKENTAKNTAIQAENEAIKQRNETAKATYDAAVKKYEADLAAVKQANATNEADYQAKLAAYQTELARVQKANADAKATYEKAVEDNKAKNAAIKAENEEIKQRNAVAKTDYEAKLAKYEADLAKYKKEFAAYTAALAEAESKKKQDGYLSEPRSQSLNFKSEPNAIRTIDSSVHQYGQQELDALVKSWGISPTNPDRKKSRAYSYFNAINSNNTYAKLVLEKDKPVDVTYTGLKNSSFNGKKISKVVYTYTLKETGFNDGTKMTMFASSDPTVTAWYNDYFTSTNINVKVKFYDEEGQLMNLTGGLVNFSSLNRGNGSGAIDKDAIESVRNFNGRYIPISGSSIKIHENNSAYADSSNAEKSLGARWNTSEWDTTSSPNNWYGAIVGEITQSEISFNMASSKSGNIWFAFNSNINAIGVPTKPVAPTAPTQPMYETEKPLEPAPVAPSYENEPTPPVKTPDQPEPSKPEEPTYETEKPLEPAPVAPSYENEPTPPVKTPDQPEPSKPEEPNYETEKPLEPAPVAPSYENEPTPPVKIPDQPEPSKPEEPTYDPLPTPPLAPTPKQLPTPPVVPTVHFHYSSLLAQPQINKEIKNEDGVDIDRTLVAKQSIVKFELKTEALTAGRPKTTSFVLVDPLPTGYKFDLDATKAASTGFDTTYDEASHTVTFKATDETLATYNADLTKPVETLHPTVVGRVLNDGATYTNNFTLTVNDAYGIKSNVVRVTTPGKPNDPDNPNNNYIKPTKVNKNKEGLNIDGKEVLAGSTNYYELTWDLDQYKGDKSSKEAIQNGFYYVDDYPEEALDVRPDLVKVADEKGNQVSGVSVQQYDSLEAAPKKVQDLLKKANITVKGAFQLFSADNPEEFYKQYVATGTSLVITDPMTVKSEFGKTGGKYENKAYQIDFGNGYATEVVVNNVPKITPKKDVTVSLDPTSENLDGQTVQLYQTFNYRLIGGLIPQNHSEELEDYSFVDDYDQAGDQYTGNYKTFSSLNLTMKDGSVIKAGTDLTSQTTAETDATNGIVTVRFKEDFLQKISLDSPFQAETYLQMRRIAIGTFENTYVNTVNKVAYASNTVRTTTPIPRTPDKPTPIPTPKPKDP", "test": "SPR, analyte over ligand immobilized on CM5 chip, 1:1 Langmuir model"}}, "data": [{"binder": "iSRCR123 (receptor, not shown: small tags and cut ends, domain: SRCR123; also called SRCRs; iSRCRs) not shown", "values": [{"measurement": "Kd", "setting": "[1]", "value": 6.72, "unit": "nM"}, {"measurement": "Ka", "setting": "[2]", "value": "1.34e+08", "unit": "M⁻¹"}, {"measurement": "Kd", "setting": "[2]", "value": 7.46, "unit": "nM"}, {"measurement": "koff", "setting": "[2]", "value": 0.000743, "unit": "s⁻¹"}, {"measurement": "kon", "setting": "[2]", "value": 99700, "unit": "M⁻¹ s⁻¹"}, {"measurement": "Ka", "setting": "[3]", "value": "1.15e+07", "unit": "M⁻¹"}, {"measurement": "Kd", "setting": "[3]", "value": 87, "unit": "nM"}, {"measurement": "koff", "setting": "[3]", "value": 0.000721, "unit": "s⁻¹"}, {"measurement": "kon", "setting": "[3]", "value": 8290, "unit": "M⁻¹ s⁻¹"}, {"measurement": "Ka", "setting": "[4]", "value": "7.98e+06", "unit": "M⁻¹"}, {"measurement": "Kd", "setting": "[4]", "value": 125, "unit": "nM"}, {"measurement": "koff", "setting": "[4]", "value": 0.00249, "unit": "s⁻¹"}, {"measurement": "kon", "setting": "[4]", "value": 19900, "unit": "M⁻¹ s⁻¹"}, {"measurement": "Ka", "setting": "[5]", "value": "2.38e+07", "unit": "M⁻¹"}, {"measurement": "Kd", "setting": "[5]", "value": 42.1, "unit": "nM"}, {"measurement": "koff", "setting": "[5]", "value": 0.000759, "unit": "s⁻¹"}, {"measurement": "kon", "setting": "[5]", "value": 18200, "unit": "M⁻¹ s⁻¹"}]}]}
